Assay results as given in patent US6831161B1, “Method of affinity separation and ligands for use therein” (Affibody AB, priority 1998, dated 2004).
Where a chain is given by its changes, count along the chain named. Values belong to the molecule of their own block, whether it stands above or below them.

How the values were obtained:
HSA [1] = target: T1, HSA (Homo sapiens, UniProt P02768); assay: Binding characteristics (BIAcore) before and after treatment with 0.5 M NaOH for 24 hours; settings: room temperature, 800 nM on BIAcore, FIG. 5
Experimental: In order to examine the stability of ABDwt and ABDmut, the binding characteristics were analysed before and after treatment with 0.5 M NaOH in room temperature for 24 hours. Both ABDwt and ABDmut were solubilized in 1×HBS (10 mM HEPES, pH 7.4, 150 mM NaCl, 3.4 mM EDTA, 0.005% P20) to a concentration of 800 nM and analyzed on BIAcore 2000 (Biacore AB, Uppsala, Sweden). In order to determine the activity change after exposure to a very alkaline environment, the proteins were solubilized in 0.5 M NaOH. After incubation in NaOH for 24 hours, the samples were run through a NAP-10 column (Amersham Pharmacia Biotech, Uppsala, Sweden) equilibrated with 30 mM NH4Ac. The protein containing samples were lyophilized and resolubilised in 1×HBS to a concentration of 800 nM in order to be analyzed in the BIAcore 2000.
(§1) A BIAcore 2000 instrument (Biacore AB) was used for real time affinity analysis. HSA and IgG were immobilized on two different surfaces of a CM5 sensor chip by amine coupling to the carboxylated dextran layer. This coupling was done according to the manufacturer's recommendation (Biacore AB). The IgG surface was used as a control. The samples were run through a 0.45 μm filter and injected over the surface in a random order at a flow rate of […].

HSA [2] = target: T1, HSA; assay: Alkaline resistance of affinity columns: HSA capacity after repeated 0.5 M NaOH washes; settings: ligand on Sepharose 4B; 15 cycles of 0.5 M NaOH wash, total exposure over 6 hours; FIG. 6
Experimental: In order to evaluate the usability of the stabilized HSA-binding protein in biotechnology, two affinity chromatography matrices were prepared; one with the unmutated protein (ABDwt) as a control and the other with the mutated ABD (ABDmut). The matrix used was Sepharose 4B (Amersham Pharmacia Biotech, Uppsala, Sweden) with carbodiimide CMC (Sigma Aldrich, Sweden) as the coupling reagent. ABDwt (4.5 mg) and ABDmut (8.5 mg) were dissolved in 9 ml water separately. 3.5 and 5.0 ml gel was added to ABDwt and ABDmut solutions respectively. Finally 0.38 g of CMC was added to the solutions and they were incubated at room temperature over night. The gels were packed on HR columns (d=5 mm, h=43 mm) and pulsed with 0.5 M ethanolamine, 0.5 M NaCl, pH 8.3 in order to inactivate the matrix and 0.1 M NaAc, 0.5 M NaCl, pH 4 in order to wash unbounded proteins out. After this, the columns were ready to use for affinity purification of HSA.
In order to explore the difference between the ABDwt column and the ABDmut column in respect of stability against alkaline treatment, both columns were repeatedly washed with 0.5 M NaOH. By using the AKTA explorer the columns were loaded with HSA, the protein was eluted by lowering the pH (Stahl et al., (1989) supra) and finally both columns were washed with NaOH. […] The flow rate used was 60 cm/h and the eluted material was collected and analyzed in each round. […]

HSA [3] = target: T1, HSA; assay type: binding; settings: for Kaff (affinity constant, ratio between Kon and Koff): BIAcore 2000, HSA immobilized on CM5 chip
From the text: as §1
Also, an analysis of the kinetic parameters was performed for the proteins that still remained active. This was done by analysing the binding behaviour in different concentrations and thereafter calculating the binding constants by using BIAevaluation 2.1 software (BIAcore AB). The concentrations used were 40-220 nM for ABDwt, 200-600 nM for ABDmut and 800-1250 nM for the NaOH treated ABDmut.

HSA [4] = target: T1, HSA; assay: HSA-binding analysis of ABDmut triple mutants on BIAcore; settings: 200 nM, 20 μl/min, immobilised HSA on CM5 chip, FIG. 7
From the text: ABDmut22-25-26, ABDmut29-30-33, and ABDmut54-57-58 proteins were produced and purified as described in Example 2. In order to analyse the binding behaviour of the different triple-mutants a BI core 2000 instrument was used. HSA was immobilised on a sensor chip surface of a CM5 sensor chip by amine coupling to the carboxylated dextran layer. As control, a sensor chip surface containing IgG was used. This coupling was done according to the manufacturers recommendation (Biacore AB). The samples of the three proteins were run through a 0.45 μm filter and injected over the surface in a random order at a flow rate of 20 μl/min. The concentration used was 200 nM and all samples were analysed three times. […] In addition, residue 62 could also be used for substitutions.

Kaff (affinity constant, ratio between Kon and Koff) (HSA [3]): 1.5 × 10^7 l/M
B1: ABDmut: ABD with Asn28 replaced by leucine, Asn42 by aspartic acid, Asn45 by aspartic acid and Asn46 by lysine (protein)
chain: MKAIFVLNAQHDEAVDANSLAEAKVLALRELDKYGVSDYYKDLIDKAKTVEGVKALIDEILAALP
Affinity towards HSA after exposure to alkaline solution (HSA [1]): has the affinity preserved
Column activity (HSA capacity) against NaOH exposure time (HSA [2]): keeping the activity throughout the experiment
Koff (dissociation rate) (HSA [3]): 0.0012 L/s
Kon (rate at which the proteins associate) (HSA [3]): 1.8 × 10^4 l/Ms

Kaff (affinity constant, ratio between Kon and Koff) (HSA [3]): 6.9 × 10^7 l/M
B5: ABDwt: Wild type Albumin Binding Protein domain from Streptococcus G148 with affinity towards human serum albumin; four asparagine residues (protein)
chain: B1 chain with L28N, D42N, D45N, K46N
Affinity towards HSA after exposure to alkaline solution (HSA [1]): loses the affinity towards HSA
Koff (dissociation rate) (HSA [3]): 0.0013 L/s
Kon (rate at which the proteins associate) (HSA [3]): 9.0 × 10^4 l/Ms

Further lines, the molecule ahead of its results:

B2: ABDmut22-25-26: ABDmut domain containing alanine substitutions at positions 22, 25 and 26 (protein)
chain: B1 chain with E22A, V25A, L26A
Ability to bind HSA (sensorgrams) (HSA [4]): retain their ability to bind HSA

B3: ABDmut29-30-33: ABDmut domain containing alanine substitutions at positions 29, 30 and 33 (protein)
chain: B1 chain with R29A, E30A, K33A
Ability to bind HSA (sensorgrams) (HSA [4]): retain their ability to bind HSA

B4: ABDmut54-57-58: ABDmut domain containing alanine substitutions at positions 54, 57 and 58 (protein)
chain: B1 chain with K54A, I57A, D58A
Ability to bind HSA (sensorgrams) (HSA [4]): retain their ability to bind HSA
